In patent US20210079109A1 (Regeneron, published 2021):
Numbering of substitutions follows the chain as printed. Blank lines part the entries; values can stand above or below the binder they belong to.

Legend:
[1] = molecular target: T1, human CD63 (human, UniProt P08962 2-238); assay: cell-based or functional assay
T1 sequence: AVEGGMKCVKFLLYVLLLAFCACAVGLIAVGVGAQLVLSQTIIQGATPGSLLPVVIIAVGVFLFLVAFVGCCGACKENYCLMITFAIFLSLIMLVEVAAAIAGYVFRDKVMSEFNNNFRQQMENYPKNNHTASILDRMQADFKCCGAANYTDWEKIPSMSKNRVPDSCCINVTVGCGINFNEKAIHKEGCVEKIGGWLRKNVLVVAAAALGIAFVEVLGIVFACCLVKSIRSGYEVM

[2] = molecular target: T1, human CD63; assay: flow cytometry, HEK293 cells
Experimental: Relative cell surface binding of the anti-CD63 antibodies to human CD63 expressing cells was accessed via flow cytometry using CD63 positive HEK293 cells (ATCC, Cat #CRL-1573), which endogenously express human CD63, and CD63 negative HEK293/CD63 knock out cells. For the assay, cells were plated in PBS without calcium and magnesium (VWR, Cat #45000-446), containing 2% FBS (Saradigm Cat #1500-500) (Staining Buffer) in 96 well V-bottom plates (Axygen Scientific, Cat #P-96-450-V-C-S). Cells were then incubated with anti-CD63 antibodies or isotype control antibodies at concentrations ranging from 100 nM to 1.7 pM for 30 minutes on ice. Wells containing no antibody were used as controls. HEK293/CD63KO cells were stained with only the highest concentration (100 nM) of the antibodies. […] Cells were then washed and fixed using a 50% solution of Cytofix (BD Biosciences, Cat #554655) diluted in PBS. Samples were run on the Intellicyte Hypercyt flow cytometer and results were analyzed in ForeCyt software (Intellicyte) to calculate the mean fluorescent intensity (MFI). Measured values were analyzed using a four parameter logistic equation over a 12-point response curve using GraphPad Prism and the resulting EC₅₀ values are reported (Table 12). The signal to noise ratio (S/N) was determined by calculating the ratio of the anti-CD63 antibodies or the control antibodies MFI to the wells containing no antibodies (Table 12).

[3] = molecular target: T2, recombinant human CD63 extracellular loop 2 expressed with a C-terminal Myc-Myc-hexahistidine (human); assay: SPR Biacore, mAb captured, 25C
T2 construct: also called hCD63 EC loop 2-MMH; human CD63 EC loop 2-MMH
T2 sequence (chain, as listed by the source limits assumed): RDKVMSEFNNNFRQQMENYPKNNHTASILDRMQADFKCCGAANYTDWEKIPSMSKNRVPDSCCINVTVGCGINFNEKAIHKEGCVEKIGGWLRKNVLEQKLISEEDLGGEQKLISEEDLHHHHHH
Outline: (§1)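 Anti-CD63 mAbs captured on anti-mouse Fc or anti-human Fab surfaces; CD63 EC2 reagents flowed in HBS-ET, pH 7.4, at 25° C or 37° C. ka and kd from 1:1 binding model with mass transport limitation; KD and t½ calculated from kinetic rates.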

[4] = molecular target: T3, recombinant human CD63 extracellular loop 2 expressed with a C-terminal human Fc tag (human); assay: SPR Biacore, mAb captured, 25C
T3 construct: also called hCD63 EC loop 2-hFc; human CD63 EC loop 2-Fc
T3 sequence (chain, as listed by the source limits assumed): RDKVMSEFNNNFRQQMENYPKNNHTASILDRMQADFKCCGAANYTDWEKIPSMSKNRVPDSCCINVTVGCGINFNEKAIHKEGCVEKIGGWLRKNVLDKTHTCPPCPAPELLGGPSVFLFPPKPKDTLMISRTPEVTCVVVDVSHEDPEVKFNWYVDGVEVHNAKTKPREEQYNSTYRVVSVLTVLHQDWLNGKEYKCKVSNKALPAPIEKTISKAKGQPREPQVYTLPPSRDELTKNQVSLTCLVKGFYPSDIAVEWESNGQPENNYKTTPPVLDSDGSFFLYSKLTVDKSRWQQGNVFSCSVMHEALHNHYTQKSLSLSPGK
Outline: as §1

[5] = molecular target: T1, human CD63; assay: ECL, NIH3T3/hCD63 cells
Outline: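 Detached cells (~2.0×10⁴/well: NIH3T3/hCD63, LNCAP, U87MG, or parental NIH3T3 as negative control) were plated on carbon-electrode plates and blocked with 2% BSA. Anti-CD63 or isotype antibodies (1.7 pM–100 nM, in duplicate) were bound 1 h at RT, then washed. Signal read as electrochemiluminescence.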

EC50 [2]: 0.5 nM
S/N (MFI over no-antibody wells) [2]: 26.7
100 nM Ag Bound (RU) [3]: 65 RU
Kd [3]: 1.23 nM
koff [3]: 0.000279 s⁻¹
kon [3]: 227000 M⁻¹ s⁻¹
t1/2 [3]: 41 min
100 nM Ag Bound (RU) [4]: 134 RU
Kd [4]: 0.15 nM
koff [4]: 4.66e-05 s⁻¹
kon [4]: 320000 M⁻¹ s⁻¹
t1/2 [4]: 248 min
EC50 [5]: 0.97 nM
binding ratio at 3.7 nM vs NIH3T3 [5]: 281 fold
B1: H2M12450N (antibody, V domains shown)
VH: QVQLQESGPKVVKPSETLSLTCTVSGGSISSYYWNWIRQSPGKGLEWIGYTKRGYTDYNPSLRSRVTISEDTSKNQFSLRISSVTAADTAVYYCAQMGWGSHAFDMWGQGTMVAVSS
VL: EIVLTQSPGTLSLSPGERATLSCRASQSVNSRYLAWYQQKPGQAPRLLIYGASSRATGIPDRCSGSGSGTDFTLTISRLEPEDFAVYYCQQYGSSPWTFGQGTKVEIK
notes: also called H2aM12450N; mAb12450
T47D (nM) IC50, indirect cytotoxicity with Fab anti-mFc-MMAF [1]: 0.24 nM

EC50 [2]: 1.9 nM
S/N (MFI over no-antibody wells) [2]: 21
100 nM Ag Bound (RU) [3]: 42 RU
Kd [3]: 11 nM
koff [3]: 0.00182 s⁻¹
kon [3]: 166000 M⁻¹ s⁻¹
t1/2 [3]: 6 min
100 nM Ag Bound (RU) [4]: 117 RU
Kd [4]: 0.753 nM
koff [4]: 0.00051 s⁻¹
kon [4]: 677000 M⁻¹ s⁻¹
t1/2 [4]: 23 min
EC50 [5]: 0.57 nM
binding ratio at 3.7 nM vs NIH3T3 [5]: 91 fold
B2: H2M12395N (antibody, V domains shown)
VH: QVQLQESGPRLVKPSETLSLTCIVSGGSISNFYWNWIRQSPGKGLEWIGYFFYTGTIDYNPSLKSRVTISLDTSKNQFSLNLRLLTAADAAVYYCARMGLGANAFDIWGHGTMVTVSS
VL: B1 VL with S28H, N30S, R32N, A52G, C63F, E82A, Y87F, S94N, I107M
notes: also called H2aM12395N

EC50 [2]: 1.8 nM
S/N (MFI over no-antibody wells) [2]: 31.6
100 nM Ag Bound (RU) [3]: 52 RU
Kd [3]: 5 nM
koff [3]: 0.00043 s⁻¹
kon [3]: 85900 M⁻¹ s⁻¹
t1/2 [3]: 27 min
100 nM Ag Bound (RU) [4]: 107 RU
Kd [4]: 0.704 nM
koff [4]: 8.4e-05 s⁻¹
kon [4]: 119000 M⁻¹ s⁻¹
t1/2 [4]: 138 min
EC50 [5]: 0.29 nM
binding ratio at 3.7 nM vs NIH3T3 [5]: 256 fold
B3: H1M12451N (antibody, V domains shown)
VH: QVQLQESGPGLMKPSETLSLTCTVSGGSFSSYYWNWIRQSPGKGLEWIGYIRYSGDTNYKPSLKSRFTISIDTSKNLFSLRLKSVTAADTAVYYCARMGLGSDAFDIWGQGTMVTVSS
VL: B1 VL with S31N, R32N, A52V, S53F, S54N, G58N, C63F
